Results taken from patent US7002001.

What was measured:
[1] = molecular target: C3 mutant with tyr(Y) at position 1303 and glutamine at 1320
[2] = molecular target: mutant C3M-26 (Arg1303->Gln, Arg1320->Gln)
[3] = molecular target: mutant C3M-I23 (Arg1303->Gln)
[4] = molecular target: mutant C3M-51 (Arg1320->Gln)
[5] = molecular target: C3 mutant with gly(G) at position 1303 and glutamine at 1320
[6] = molecular target: C3 mutant with trp(W) at position 1303 and glutamine at 1320
[7] = molecular target: C3 mutant with cys(C) at position 1303 and glutamine at 1320
[8] = molecular target: wild-type human C3 (expressed from the PC3 coding sequence)
[9] = molecular target: E1Q2 mutant C3 (Arg1303 changed to Glu, plus Arg1320 changed to Gln)
E1Q2 mutant C3 (Arg1303 changed to Glu, plus Arg1320 changed to Gln), sequence (chain, as listed by the source mutant, chain 1 of 2): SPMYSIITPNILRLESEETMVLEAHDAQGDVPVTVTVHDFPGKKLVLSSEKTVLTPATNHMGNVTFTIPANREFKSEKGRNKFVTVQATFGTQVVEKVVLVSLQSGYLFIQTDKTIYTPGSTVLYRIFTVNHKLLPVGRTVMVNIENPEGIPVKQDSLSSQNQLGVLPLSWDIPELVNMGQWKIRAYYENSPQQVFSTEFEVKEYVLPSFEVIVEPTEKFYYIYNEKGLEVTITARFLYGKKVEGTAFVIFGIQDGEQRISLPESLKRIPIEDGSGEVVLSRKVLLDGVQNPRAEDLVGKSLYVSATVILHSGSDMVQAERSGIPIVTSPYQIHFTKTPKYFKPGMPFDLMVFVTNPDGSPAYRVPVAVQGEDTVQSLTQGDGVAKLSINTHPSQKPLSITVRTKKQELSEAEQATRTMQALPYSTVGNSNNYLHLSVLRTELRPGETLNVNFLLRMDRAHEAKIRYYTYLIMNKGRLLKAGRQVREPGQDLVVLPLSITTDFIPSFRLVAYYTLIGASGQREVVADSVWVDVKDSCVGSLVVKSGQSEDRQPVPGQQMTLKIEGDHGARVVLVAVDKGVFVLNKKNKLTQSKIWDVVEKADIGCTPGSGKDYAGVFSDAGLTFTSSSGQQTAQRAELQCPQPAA
E1Q2 mutant C3 (Arg1303 changed to Glu, plus Arg1320 changed to Gln), sequence (chain, as listed by the source mutant, chain 2 of 2): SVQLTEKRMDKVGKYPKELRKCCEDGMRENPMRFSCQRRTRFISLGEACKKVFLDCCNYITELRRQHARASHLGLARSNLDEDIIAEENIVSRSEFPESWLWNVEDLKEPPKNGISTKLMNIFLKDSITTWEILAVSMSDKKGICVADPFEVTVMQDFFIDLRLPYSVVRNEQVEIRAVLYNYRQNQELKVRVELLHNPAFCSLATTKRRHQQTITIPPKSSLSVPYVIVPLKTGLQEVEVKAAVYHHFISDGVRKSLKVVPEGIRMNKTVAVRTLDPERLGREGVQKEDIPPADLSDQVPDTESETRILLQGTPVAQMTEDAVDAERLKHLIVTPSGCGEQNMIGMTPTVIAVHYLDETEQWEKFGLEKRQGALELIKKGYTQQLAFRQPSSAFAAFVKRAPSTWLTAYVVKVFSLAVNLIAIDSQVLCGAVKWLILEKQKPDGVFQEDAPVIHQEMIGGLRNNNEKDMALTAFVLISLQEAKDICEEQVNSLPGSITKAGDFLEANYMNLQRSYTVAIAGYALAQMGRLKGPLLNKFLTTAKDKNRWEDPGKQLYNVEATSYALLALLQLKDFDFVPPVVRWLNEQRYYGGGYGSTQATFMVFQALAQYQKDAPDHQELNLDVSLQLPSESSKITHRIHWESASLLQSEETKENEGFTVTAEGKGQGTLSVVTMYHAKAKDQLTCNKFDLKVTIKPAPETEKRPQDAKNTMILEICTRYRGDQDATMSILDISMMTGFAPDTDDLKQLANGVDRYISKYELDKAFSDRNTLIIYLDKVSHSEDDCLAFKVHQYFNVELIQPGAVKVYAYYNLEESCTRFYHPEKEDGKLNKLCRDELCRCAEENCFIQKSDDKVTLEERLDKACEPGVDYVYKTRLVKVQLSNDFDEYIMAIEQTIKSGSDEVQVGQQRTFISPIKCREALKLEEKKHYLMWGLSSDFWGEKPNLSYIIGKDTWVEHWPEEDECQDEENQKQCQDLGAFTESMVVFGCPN

mutant C3M-51 (Arg1320->Gln), sequence (chain, as listed by the source, stated change not applied, chain 1 of 2): as the sequence (chain, as listed by the source mutant, chain 1 of 2) above
mutant C3M-51 (Arg1320->Gln), sequence (chain, as listed by the source, stated change not applied, chain 2 of 2): as the sequence (chain, as listed by the source mutant, chain 2 of 2) above, with E632R counted along it
mutant C3M-26 (Arg1303->Gln, Arg1320->Gln), sequence (chain, as listed by the source, stated change not applied, chain 1 of 2): as the sequence (chain, as listed by the source mutant, chain 1 of 2) above
mutant C3M-26 (Arg1303->Gln, Arg1320->Gln), sequence (chain, as listed by the source, stated change not applied, chain 2 of 2): as the sequence (chain, as listed by the source mutant, chain 2 of 2) above, with E632Q counted along it

B1: factor I (protein)
chain: KVTYTSQEDLVEKKCLAKKYTHLSCDKVFCQPWQRCIEGTCVCKLPYQCPKNGTAVCATNRRSFPTYCQQKSLECLHPGTKFLNNGTCTAEGKFSVSLKHGNTDSEGIVEVKLVDQDKTMFICKSSWSMREANVACLDLGFQQGADTQRRFKLSDLSINSTECLHVHCRGLETSLAECTFTKRRTMGYQDFADVVCYTQKADSPMDDFFQCVNGKYISQMKACDGINDCGDQSDELCCKACQGKGFHCKSGVCIPSQYQCNGEVDCITGEDEVGCAGFASVTQEETEILTADMDAERRRIKSLLPKLSCGVKNRMHIRRKRIVGGKRAQLGDLPWQVAIKDASGITCGGIYIGGCWILTAAHCLRASKTHRYQIWTTVVDWIHPDLKRIVIEYVDRIIFHENYNAGTYQNDIALIEMKKDGNKKDCELPRSIPACVPWSPYLFQPNDTCIVSGWGREKDNERVFSLQWGEVKLISNCSKFYGNRFYEKEMECAGTYDGSIDACKGDSGGPLVCMDANNVTYVWGVVSWGENCGKPEFPGVYTKVANYFDWISYHVGRPFISQYNV
Factor I-mediated cleavage at position 1303 (35S label, SDS-PAGE, autoradiography) [1]: cleavage occurs in the order: arg(R)>tyr(Y)>cys(C) and trp(W)>gln(Q)>gly(G) and glu(E) | Factor I-mediated cleavage at position 1303 (35S label, SDS-PAGE, autoradiography) [2]: cleavage occurs in the order: arg(R)>tyr(Y)>cys(C) and trp(W)>gln(Q)>gly(G) and glu(E) | cleavage of the C3b-like product by factors H and I (immunoprecipitation, western blot) [2]: It was also very resistant to the additional factors H and I (3-D) in comparison with the unmutated C3 (1) and other mutants (2 and 4) | cleavage of the C3b-like product by factors H and I (immunoprecipitation, western blot) [3]: no 68 kDa band was present, showing that this mutant is resistant to cleavage at the mutated Gln1303 | Factor I-mediated cleavage at position 1303 (35S label, SDS-PAGE, autoradiography) [4]: cleavage occurs in the order: arg(R)>tyr(Y)>cys(C) and trp(W)>gln(Q)>gly(G) and glu(E) | cleavage of the C3b-like product by factors H and I (immunoprecipitation, western blot) [4]: the absence of a 43 kDa band indicates that it is not cleaved at the mutated Gln1320 | Factor I-mediated cleavage at position 1303 (35S label, SDS-PAGE, autoradiography) [5]: cleavage occurs in the order: arg(R)>tyr(Y)>cys(C) and trp(W)>gln(Q)>gly(G) and glu(E) | Factor I-mediated cleavage at position 1303 (35S label, SDS-PAGE, autoradiography) [6]: cleavage occurs in the order: arg(R)>tyr(Y)>cys(C) and trp(W)>gln(Q)>gly(G) and glu(E) | Factor I-mediated cleavage at position 1303 (35S label, SDS-PAGE, autoradiography) [7]: cleavage occurs in the order: arg(R)>tyr(Y)>cys(C) and trp(W)>gln(Q)>gly(G) and glu(E) | cleavage of the C3b product by factors H and I (immunoprecipitation, western blot) [8]: the C3b product is further cleaved by endogenous enzymes in 1-B or added factors H and I in 1-D. The 43 kDa band indicates cleavage at Arg1320, and the 68 kDa band (visible in longer exposures) indicates cleavage at Arg1303 | Factor I-mediated cleavage at position 1303 (35S label, SDS-PAGE, autoradiography) [9]: cleavage occurs in the order: arg(R)>tyr(Y)>cys(C) and trp(W)>gln(Q)>gly(G) and glu(E)
